Source: patent US20220332764A1, “T CELL EPITOPES OF HCMV AND USES OF THEREOF” (EBERHARD KARLS UNIVERSITÄT TÜBINGEN, priority 2019, published 2022)

What was measured:
Test in all cases: cell-based or functional assay
HLA-B*08:01 (human) = target: HLA-B*08:01 (human)
HLA-B*51:01 (human) = target: HLA-B*51:01 (human)
HLA-B*07:02 (human) = target: HLA-B*07:02 (human)

Binder | % Positive donors (after 12 days of stimulation), IFNγ ELISpot (HLA-B*08:01 (human)) | % Positive donors (after 12 days of stimulation), IFNγ ELISpot (HLA-B*51:01 (human)) | % Positive donors (after 12 days of stimulation), IFNγ ELISpot (HLA-B*07:02 (human))
LPYPRGYTL (modifications not checked) [UL26 61-69 …] | 68.8% | 62.5% | 
LPHERHREL (modifications not checked) [UL34 180-188 …] | 90.9% |  | 25%
